# Assay results taken from the supplement of paper PMC10567573.
# B1: C6orf223 (parent)
# chain: TLARMSRRTRGPVERAAAAAAAAA
# B2: FAM50A (parent)
# chain: KALEILRKDFSELRSAGVEQLMYI
# Variants of: B1
# Assay: protein stability index of a GFP-peptide fusion (GPS, HEK-293T) (PSI 1-6); higher = more stable
# Settings: c terminus: a fixed tail appended
# 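Also: lentivirally expressed fusions sorted by FACS into six bins by GFP to DsRed ratio, PSI derived from sequencing read proportions per bin multiplied by bin number.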
row,Variant,protein stability index
1,TLARMSRRTRGPVERAAAAAANAA,3.38
2,TLARMSRRTRGPVERAAAAAALAA,2.4
3,TLARMSRRTRGPVERAAAAAATAA,3.2
4,TLARMSRRTRGPVERAAAAAAFAA,2.37
5,TLARMSRRTRGPVERAAAAAAAAH,4.49
6,TLARMSRRTRGPVERAAAAAAAAF,2.35
7,TLARMSRRTRGPVERAAAAAVAAA,2.18
8,TLARMSRRTRGWVERAAAAAAAAA,2.27
9,TLARMSRRTRGPVERAFAAAAAAA,1.63
10,TLARMSRRTRGPVERARAAAAAAA,3.5
11,TLARMSRRTRGPVEWAAAAAAAAA,2.01
12,TLARMSRRTRGPVERAAQAAAAAA,2.4
13,TLARMSRRTRGPVERAAWAAAAAA,2.45
14,TLARMSRRTRGPVERAATAAAAAA,3.57

# Variants of: B2
# Assay: as above
# Settings: c terminus: a fixed tail appended
row,Variant,protein stability index
1,KALEILRKDFSELRSAGIEQLMYI,3.33
2,KALEILRKDFSELRSAGKEQLMYI,2.61
3,KALEILRKDFSELRSAGFEQLMYI,4.7
4,KALEILRKDFSELRSAGLEQLMYI,3.85
5,KALEILRKDFSELRSAGEEQLMYI,2.9
6,KALEILRKDFSELRSAGYEQLMYI,2.02
7,KALEILRKDFSELRSAGGEQLMYI,2.52
8,KALEILRKDFSELRSAGSEQLMYI,1.28
9,KALEILRKDFSELRSAGNEQLMYI,2.35
10,KALEILRKDFSELRSAGVEQLIYI,1.97
11,KALEILRKDFSELRSAGVEQLDYI,2.22
12,KALEILRKDFSELRSAGVEQLCYI,2.56
13,KALEILRKDFSELRSAGVEQLWYI,2.3
14,KALEILRKDFSELRSAGVEQLEYI,1.27
15,KALEILRKDFSELRSAGVEQLQYI,2.37
16,KALEILRKDFSELRSAGVEQLPYI,2.46
17,KALEILRKDFSELRSAGVEQLFYI,2.34
18,KALEILRKDFSELRSAGVEQLTYI,2.22
19,KALEILRKDFSELRSAGVEQLMYK,1.94
20,KALEILRKDFSELRSAGVEQLMYE,1.01
21,KALEILRKDFSELRSAGVEQLMYQ,1.73
22,KALEILRKDFSELRSAGVEQLMYN,1.21
23,KALEILRKDFSELRSAGVEQLMYS,1.54
24,KALEILRKDFSELRSAGVEQLMYC,1.98
25,KALEILRKDFSELRSAGVLQLMYI,2.18
26,KALEILRKDFSELRSAGVGQLMYI,1.76
27,KALEILRKDFSELRSAGVNQLMYI,2

row,Variant,protein stability index
1,KALEILRKDFSELRSAGVWQLMYI,1.95
2,KALEILRKDFSELRSAGVHQLMYI,3.15
3,KALEILRKDFSELRSAGVFQLMYI,2.9
4,KALEILRKDFSELRSAGVQQLMYI,2.95
5,KALEILRKDFSELRSAGVIQLMYI,2.66
6,KALEILRKDFSELRSAGVPQLMYI,4.03
7,KALEILRKDFSELRFAGVEQLMYI,2.51
8,KALEILRKDFSELRRAGVEQLMYI,2.64
9,KALEILRKDFSELRAAGVEQLMYI,3.13
10,KALEILRKDFSELRDAGVEQLMYI,1.14
11,KALEILRKDFSELRHAGVEQLMYI,4.69
12,KALEILRKDFSELRSVGVEQLMYI,2.07
13,KALEILRKDFSELRSIGVEQLMYI,2.76
14,KALEILRKDFSELRSEGVEQLMYI,3.17
15,KALEILRKDFSELRSAHVEQLMYI,1.88
16,KALEILRKDFSELRSADVEQLMYI,1.95
17,KALEILRKDFSELRSAAVEQLMYI,4.16
18,KALEILRKDFSELRSAYVEQLMYI,2.95
19,KALEILRKDFSELWSAGVEQLMYI,2.68
20,KALEILRKDFSELLSAGVEQLMYI,4.57
21,KALEILRKDFSELNSAGVEQLMYI,1.95
22,KALEILRKDFSELYSAGVEQLMYI,1.69
23,KALEILRKDFSELESAGVEQLMYI,1.68
24,KALEILRKDFSELFSAGVEQLMYI,3.71
25,KALEILRKDFSELKSAGVEQLMYI,1.51
26,KALEILRKDFSELCSAGVEQLMYI,4.11
27,KALEILRKDFSELSSAGVEQLMYI,2.28

row,Variant,protein stability index
1,KALEILRKDFSELRSAGVEQAMYI,1.78
2,KALEILRKDFSELRSAGVEQDMYI,2.23
3,KALEILRKDFSELRSAGVEQPMYI,3.17
4,KALEILRKDFSELRSAGVEQYMYI,3.12
5,KALEILRKDFSELRSAGVEQRMYI,3.83
6,KALEILRKDFSELRSAGVEQNMYI,2.82
7,KALEILRKDFSELRSAGVEQGMYI,3
8,KALEILRKDFSTLRSAGVEQLMYI,3.5
9,KALEILRKDFSRLRSAGVEQLMYI,4
10,KALEILRKDFSSLRSAGVEQLMYI,3.99
11,KALEILRKDFSVLRSAGVEQLMYI,2.75
12,KALEILRKDFSELRSAGVEQLMEI,2.41
13,KALEILRKDFSELRSAGVEQLMNI,1.03
14,KALEILRKDFSELRSAGVEQLMDI,1.45
15,KALEILRKDFSELRSAGVEQLMKI,2.67
16,KALEILRKDFSEHRSAGVEQLMYI,5.15
17,KALEILRKDFSEARSAGVEQLMYI,3.08
18,KALEILRKDFSEKRSAGVEQLMYI,1.53
19,KALEILRKDFSEIRSAGVEQLMYI,2
20,KALEILRKDFSELRSAGVELLMYI,2.75
21,KALEILRKDFSELRSAGVEKLMYI,4.59
22,KALEILRKDFSELRSAGVEMLMYI,1.54
23,KALEILRKDFSELRSAGVEDLMYI,3.81
24,KALEILRKDFSELRSAGVEYLMYI,2.58
25,KALEILRKDFSELRSAGVEVLMYI,3.63
26,KALEILRKDFSELRSAGVEPLMYI,3.58
